Results on 22 molecules are retold here after patent publication US20260365709 (published 2026).

The chains are these.
B1: DR2822 (designed binder)
chain: GKSKAVEQVKSDFNKLQDQGVYKAMNEFDIFINAIEAYMMIKMKSREDNNCTHFPVGQSHMLLELRTAFSQVKTFFQTKDQLDNILLTDSLMQDFKGYLGCQALSEMIQFYLVEVMPQAEKHGPEIKEHLNSLGEKLKTLRMRLRRCHRFLPCEN
B2: DR2820 (designed binder)
chain: GKCKAVEQVKSDFNKLQDQGVYKAMNEFDIFINAIEAYMMIKMKSQYSREDNNCTHFPVGQSHMLLELRTAFSQVKTFFQTKDQLDNILLTDSLMQCFKGYLGCQALSEMIQFYLVEVMPQAEKHGPEIKEHLNSLGEKLKTLRMRLRRCHRFLPCEN
B3: DR2821 (designed binder)
chain: GKSKACEQVKSDFNKLQDQGVYKAMNEFDIFINAIEAYMMIKMKSQYSREDNNCTHFPVGQSHMLLELRTAFSQVKTFFQTKDQLDNILLTDSLMQDFKGYLGCQALSCMIQFYLVEVMPQAEKHGPEIKEHLNSLGEKLKTLRMRLRRCHRFLPCEN
B4: DR2818 (designed binder)
chain: GKSKCVEQVKSDFNKLQDQGVYKAMNEFDIFINAIEAYMMIKMKSQYSREDNNCTHFPVGQSHMLLELRTAFSQVKTFFQTKDQLDNILLTDSCMQDFKGYLGCQALSEMIQFYLVEVMPQAEKHGPEIKEHLNSLGEKLKTLRMRLRRCHRFLPCEN
B5: DR2819 (designed binder)
chain: GKSKCVEQVKSDFNKLQDQGVYKAMNEFDIFINAIEAYMMIKMKSQYSREDNNCTHFPVGQSHMLLELRTAFSQVKTFFQTKDQLDNILLTDSLMQCFKGYLGCQALSEMIQFYLVEVMPQAEKHGPEIKEHLNSLGEKLKTLRMRLRRCHRFLPCEN
B6: DR2806 (designed binder)
chain: GKSKAVEQVKSIFNKLQDQGVYKAMNEFDIFINAIEAYMMIKMKSSREDNNCTHFNVGLSHMLLELRTAFSQVKTFFQTKDQLDNILLTDSLMQDFKGYLGCQALSEMIQFYLVEVLPQAEKHGPEIKEHLNSLGEILKTLRMRLRRCHRFLPCEN
B7: DR2823 (designed binder)
chain: GKSKAVEQVKSDFNKLQDQGVYKAMNEFDIFINAIEAYMMIKMKSSREDNNCTHFPVGQSHMLLELRTAFSQVKTFFQTKDQLDNILLTDSLMQDFKGYLGCQALSEMIQFYLVEVMPQAEKHGPEIKEHLNSLGEKLKTLRMRLRRCHRFLPCEN
B8: DR2809 (designed binder)
chain: GKSKAVEQVKSIFNKLQDQGVYKAMNEFDIFINAIEAYMMIKMKSSREDNNCTHAPVGQSHMLLELRTAFSQVKTFFQTKDQLDNILLTDSLMQDFKGYLGCQALSEMIQFYLVEVLPQAEKHGPEIKEHLNSLGEKLKTLRMRLRRCHRFLPCEN
B9: DR2807 (designed binder)
chain: GKSKAVEQVKSIFNKLQDQGVYKAMNEFDIFINAIEAYMMIKMKSSREDNNCTHFPVGQSHMLLELRTAFSQVKTFFQTKDQLDNILLTDSLMQDFKGYLGCQALSEMIQFYLVEVMPQAEKHGPEIKEHLNSLGEKLKTLRMRLRRCHRFLPCEN
B10: DR2815 (designed binder)
chain: GKSKAVEQVKSDFNKLQDQGVYKAMNEFDIFINAIEAYMMIKMKSSREDNNCTHFNVVMSHMLLELRTAFSQVKTFFQTKDQLDNILLTDSLMQDFKGYLGCQALSEMIQFYLVEVLPQAEKHGPEIKEHLNSLGEKLKTLRMRLRRCHRFLPCEN
B11: DR2803 (designed binder)
chain: GKSKAVEQVKSIFNKLQDQGVYKAMNEFDIFINAIEAYMMIKMKSSREDNNCTHAPVAFWHMLLELRTAFSQVKTFFQTKDQLDNILLTDSLMQDFKGYLGCQALSEMIQFYLVEVLPQAEKHGPEIKEHLNSLGEILKTLRMRLRRCHRFLPCEN
B12: DR2813 (designed binder)
chain: GKSKAVEQVKSDFNKLQDQGVYKAMNEFDIFINAIEAYMMIKMKSSREDNNCTHFWVAMSHMLLELRTAASQVKTFFQTKDQLDNILLTDSLMQDFKGYLGCQALSEMIQFYLVEVLPQAEKHGPEIKEHLISLGEILKTLRMRLRRCHRFLPCEN
B13: DR2817 (designed binder)
chain: GKSKAVEQVKSDFNKLQDQGVYKAMNEFDIFINAIEAYMMIKMKSSREDNNCTHAPVGQSHMLLELRTAFSQVKTFFQTKDQLDNILLTDSLMQDFKGYLGCQALSEMIQFYLVEVLPQAEKHGPEIKEHLNSLGEKLKTLRMRLRRCHRFLPCEN
B14: DR2804 (designed binder)
chain: GKSKAVEQVKSIFNKLQDQGVYKAMNEFDIFINAIEAYMMIKMKSSREDNNCTHAPVGMSHMLLELRTAFSQVKTFFQTKDQLDNILLTDSLMQDFKGYLGCQALSEMIQFYLVEVLPQAEKHGPEIKEHLISLGEILKTLRMRLRRCHRFLPCEN
B15: DR2808 (designed binder)
chain: GKSKAVEQVKSIFNKLQDQGVYKAMNEFDIFINAIEAYMMIKMKSSREDNNCTHAPVGQSHMLLELRTAFSQVKTFFQTKDQLDNILLTDSLMQDFKGYLGCQALSEMIQFYLVEVLPQAEKHGPEIKEHLNSLGEILKTLRMRLRRCHRFLPCEN
B16: DR2816 (designed binder)
chain: GKSKAVEQVKSDFNKLQDQGVYKAMNEFDIFINAIEAYMMIKMKSSREDNNCTHAPVGQSHMLLELRTAFSQVKTFFQTKDQLDNILLTDSLMQDFKGYLGCQALSEMIQFYLVEVLPQAEKHGPEIKEHLNSLGEILKTLRMRLRRCHRFLPCEN
B17: DR2805 (designed binder)
chain: GKSKAVEQVKSIFNKLQDQGVYKAMNEFDIVINAIEAYMMIKMKSSREDNNCTHAPVMFSHMLLELRTAFSQVKTFFQTKDQLDNILLTDSLMQDFKGYLGCQALSEMIQFYLVEVLPQAEKHGPEIKEHLNSLGEILKTLRMRLRRCHRFLPCEN
B18: DR2802 (designed binder)
chain: GKSKAVEQVKSIFNKLQDQGVYKAMNEFDIFINAIEAYMMIKMKSSREDNNCTHFMVAMSHMLLELRTAFSQVKTFFQTKDQLDNILLTDSLMQDFKGYLGCQALSEMIQFYLVEVLPQAEKHGPEIKEHLNSLGEKLKTLRMRLRRCHRFLPCEN
B19: WC161_AA (mIL10 WT inverted monomer) (designed binder)
chain: NKSKAVEQVKSDFNKLQDQGVYKAMNEFDIFINAIEAYMMIKMKSSRGQYSREDNNCTHFPVGQSHMLLELRTAFSQVKTFFQTKDQLDNILLTDSLMQDFKGYLGCQALSEMIQFYLVEVMPQAEKHGPEIKEHLNSLGEKLKTLRMRLRRCHRFLPCENGGSHHHHHHHH
B20: h_DR1060_AA (hIL10 WT inverted monomer) (designed binder)
chain: KSKAVEQVKNAFNKLQEKGIYKAMSEFDIFINYIEAYMTMKIRNSPGQGTQSENSCTHFPGNLPNMLRDLRDAFSRVKTFFQMKDQLDNLLLKESLLEDFKGYLGCQALSEMIQFYLEEVMPQAENQDPDIKAHVNSLGENLKTLRLRLRRCHRFLPCENGGSHHHHHHHH
B21: hIL10 WT (protein)
chain: SPGQGTQSENSCTHFPGNLPNMLRDLRDAFSRVKTFFQMKDQLDNLLLKESLLEDFKGYLGCQALSEMIQFYLEEVMPQAENQDPDIKAHVNSLGENLKTLRLRLRRCHRFLPCENKSKAVEQVKNAFNKLQEKGIYKAMSEFDIFINYIEAYMTMKIRN
modifications: wild-type human IL10, homodimer; exact construct/tag not stated
B22: mIL10 WT (protein)
chain: SRGQYSREDNNCTHFPVGQSHMLLELRTAFSQVKTFFQTKDQLDNILLTDSLMQDFKGYLGCQALSEMIQFYLVEVMPQAEKHGPEIKEHLNSLGEKLKTLRMRLRRCHRFLPCENKSKAVEQVKSDFNKLQDQGVYKAMNEFDIFINCIEAYMMIKMKS
modifications: wild-type mouse IL10, homodimer; exact construct/tag not stated

One experiment deals with T1, mIL10RaFc (Sino 51298-M02H) (mouse, UniProt Q61727).
T1 chain: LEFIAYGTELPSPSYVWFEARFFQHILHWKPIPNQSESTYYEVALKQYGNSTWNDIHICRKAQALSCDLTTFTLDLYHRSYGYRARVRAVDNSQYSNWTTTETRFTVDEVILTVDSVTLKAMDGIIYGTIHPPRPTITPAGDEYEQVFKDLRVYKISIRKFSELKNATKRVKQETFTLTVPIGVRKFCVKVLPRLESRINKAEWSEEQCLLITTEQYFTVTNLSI
The experiment is described as follows: SPR. On the technique in general: SPR reads the build-up and loss of mass on a sensor chip optically.
With B1, binding was characterised by a dissociation constant (Kd) of 6.42 nM.
Turning to B2, the equilibrium dissociation constant (Kd) – broadly, the equilibrium constant for the complex coming apart – was determined as 3.37 nM.
Still for that read-out and setting: under B3 stands 4.49 nM.
For B4, the Kd amounted to 2.34 nM.
On the same count and under the same terms, the result for B5 reads 2.71 nM; that for B6, 2.7 nM; that for B7, 5.2 nM.
The molecule B8 returned a dissociation constant (Kd) of 17.3 nM.
The molecule B9 came in with a Kd of 144 nM.
Still for that read-out and setting: the result for B10 reads 1 nM; that for B11, 1.7 nM.
On to B12, for which the Kd amounted to 39.9 nM.
The molecule B13 came in with a Kd of 1.65 nM.
Consider B14, for which the dissociation constant (Kd) was 1.59 nM.
The same measure, in the same setting: under B15 stands 1.35 nM; under B16, 1.61 nM.
The molecule B17 registered a Kd of 30.9 nM.
Still for that read-out and setting: the result for B18 reads 2.29 nM.
As for B19, the Kd came to 5.27 nM.

The next experiment concerns the target T2, hIL10RaFc (R&D 9044-RI) (human, UniProt Q13651).
T2 chain: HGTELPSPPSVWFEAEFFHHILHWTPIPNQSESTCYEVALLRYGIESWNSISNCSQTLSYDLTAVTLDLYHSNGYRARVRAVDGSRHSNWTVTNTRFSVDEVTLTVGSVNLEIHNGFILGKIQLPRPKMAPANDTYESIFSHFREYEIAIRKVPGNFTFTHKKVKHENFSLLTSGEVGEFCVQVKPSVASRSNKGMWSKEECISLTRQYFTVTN
The experiment is described as follows: SPR.
In turn, B20 had a dissociation constant Kd of 0.38 nM.
The molecule B21 showed an equilibrium dissociation constant (Kd) of 0.06 nM.

For the next experiment, the target named is T1, mIL10RaFc (Sino 51298-M02H). The experiment is described as follows: SPR. The source holds these as a separate data set.
The molecule B22 displayed a dissociation constant Kd of 0.81 nM.
Still for that read-out and setting: the result for B19 reads 6.54 nM.
